In patent publication US20170355757A1 (Regeneron, published 2017):

T1: monkey C5-mmh (monkey, UniProt P01031 19-1676 (human entry), limits assumed)
T1 construct: recombinant, with C-terminal myc-myc-hexahistidine tag
T1 chain: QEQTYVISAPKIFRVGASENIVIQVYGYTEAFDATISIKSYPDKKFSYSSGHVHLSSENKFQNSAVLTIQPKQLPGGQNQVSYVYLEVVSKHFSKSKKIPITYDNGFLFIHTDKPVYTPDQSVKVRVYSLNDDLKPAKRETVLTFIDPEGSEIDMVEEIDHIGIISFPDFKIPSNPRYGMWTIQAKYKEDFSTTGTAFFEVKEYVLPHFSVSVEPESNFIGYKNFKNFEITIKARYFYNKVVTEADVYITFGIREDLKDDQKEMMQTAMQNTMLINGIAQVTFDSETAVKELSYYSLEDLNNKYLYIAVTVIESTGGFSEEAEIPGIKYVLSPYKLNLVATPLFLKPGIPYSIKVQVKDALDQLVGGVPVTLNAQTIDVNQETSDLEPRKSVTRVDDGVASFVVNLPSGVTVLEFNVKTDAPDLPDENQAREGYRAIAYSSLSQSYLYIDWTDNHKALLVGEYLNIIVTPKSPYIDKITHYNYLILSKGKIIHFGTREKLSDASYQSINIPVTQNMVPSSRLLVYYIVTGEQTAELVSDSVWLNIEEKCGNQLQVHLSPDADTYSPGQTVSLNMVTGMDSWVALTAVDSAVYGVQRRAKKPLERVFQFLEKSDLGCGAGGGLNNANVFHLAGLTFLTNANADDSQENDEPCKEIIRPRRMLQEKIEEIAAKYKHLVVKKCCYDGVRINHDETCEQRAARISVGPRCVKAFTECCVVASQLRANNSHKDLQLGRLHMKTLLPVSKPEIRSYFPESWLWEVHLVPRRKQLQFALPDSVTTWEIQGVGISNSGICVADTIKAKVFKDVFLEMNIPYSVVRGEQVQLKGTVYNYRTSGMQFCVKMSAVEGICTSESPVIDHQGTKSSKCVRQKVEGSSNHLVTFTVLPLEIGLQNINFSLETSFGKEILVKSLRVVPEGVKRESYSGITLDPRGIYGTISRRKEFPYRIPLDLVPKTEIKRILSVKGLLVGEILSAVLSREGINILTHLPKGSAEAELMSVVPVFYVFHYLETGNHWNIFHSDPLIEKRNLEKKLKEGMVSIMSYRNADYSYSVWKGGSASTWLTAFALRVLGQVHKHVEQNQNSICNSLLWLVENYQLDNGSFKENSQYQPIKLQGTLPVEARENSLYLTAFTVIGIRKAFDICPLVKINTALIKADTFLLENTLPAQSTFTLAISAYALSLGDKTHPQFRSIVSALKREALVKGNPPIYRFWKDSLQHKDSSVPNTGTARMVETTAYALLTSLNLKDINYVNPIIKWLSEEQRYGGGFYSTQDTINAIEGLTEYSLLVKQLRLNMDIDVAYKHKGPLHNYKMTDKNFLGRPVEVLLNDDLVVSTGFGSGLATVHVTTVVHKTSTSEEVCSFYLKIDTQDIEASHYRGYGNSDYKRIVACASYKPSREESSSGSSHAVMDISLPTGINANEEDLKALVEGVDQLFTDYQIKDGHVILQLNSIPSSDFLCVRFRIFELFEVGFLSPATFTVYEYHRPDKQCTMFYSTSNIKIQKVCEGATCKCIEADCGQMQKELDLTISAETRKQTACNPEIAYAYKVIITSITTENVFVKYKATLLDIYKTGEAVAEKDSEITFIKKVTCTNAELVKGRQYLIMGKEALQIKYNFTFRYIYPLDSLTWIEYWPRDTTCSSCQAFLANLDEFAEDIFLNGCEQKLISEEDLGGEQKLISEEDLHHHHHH


Columns and labels:
human C5 [1] = target: T2, human C5 (human, UniProt P01031 19-1676); assay: cell-based or functional assay
African green monkey C5 [2] = target: T3, African green monkey C5 (African green monkey); assay: cell-based or functional assay
human C5 R885H-mmh = human C5 R885H-mmh (human, UniProt P01031 19-1676); assay: cell-based or functional assay
human C5 R885C-mmh = human C5 R885C-mmh (human, UniProt P01031 19-1676); assay: cell-based or functional assay
human C5 [3] = target: T2, human C5; assay: cell-based or functional assay; remark: listed apart in the source
African green monkey C5 [4] = target: T3, African green monkey C5; assay: cell-based or functional assay; remark: listed apart in the source
Cynomolgus monkey C5 = Cynomolgus monkey C5 (cynomolgus monkey, UniProt A0A2K5U1T1 19-1676); assay: cell-based or functional assay
human C5 [5] = target: T2, human C5; assay: SPR (Biacore), mAb captured, dissociation of human C5 at pH7.4 vs pH6.0, 37°C
Protocol: Effect of pH on the rate of dissociation of recombinant human C5 bound to purified anti-C5 monoclonal antibodies was determined using a real-time surface plasmon resonance biosensor using a Biacore T200 instrument. The Biacore sensor surface was first derivatized by amine coupling with a monoclonal mouse anti-human Fc antibody (GE, # BR-1008-39) to capture anti-C5 monoclonal antibodies expressed with human IgG4 Fc. All Biacore binding studies were performed using two running buffers PBS-T, pH7.4 (0.01M Na₂HPO₄/NaH₂PO₄, 0.15M NaCl, 0.05% v/v Tween-20, adjusted to pH7.4) and PBS-T, pH6.0 (0.01M Na₂HPO₄/NaH₂PO₄, 0.15M NaCl, 0.05% v/v Tween-20, adjusted to pH6.0). […] Binding dissociative half-lives (t %) were calculated from kd as: […]

monkey C5-mmh [6] = target: T1, monkey C5-mmh; assay: SPR (Biacore), mAb captured, dissociation of monkey C5 at pH7.4 vs pH6.0, 25°C
monkey C5-mmh [7] = target: T1, monkey C5-mmh; assay: SPR (Biacore), mAb captured, dissociation of monkey C5 at pH7.4 vs pH6.0, 37°C

IC50, inhibition of CDC of Daudi cells, 1.66% human serum (human C5 [1]) [nM] | IC50, inhibition of CDC of Daudi cells, 1.66% African Green monkey serum (African green monkey C5 [2]) [nM] | IC50, inhibition of CDC of Daudi cells, C5 depleted human serum and 6.6 nM C5 Variant R885H (human C5 R885H-mmh) [nM] | IC50, inhibition of CDC of Daudi cells, C5 depleted human serum and 6.6 nM C5 Variant R885C (human C5 R885C-mmh) [nM] | t½ Ratio pH7.4/pH6.0 (human C5 [5]) | t½ Ratio pH7.4/pH6.0 (monkey C5-mmh [6]) | t½ Ratio pH7.4/pH6.0 (monkey C5-mmh [7]) | Binder | Human AP % Max Inhibition, hemolysis assay, NHS (human C5 [3]) [%] | Human AP IC50, hemolysis assay, NHS (human C5 [3]) [nM] | Human CP % Max Inhibition, hemolysis assay, NHS (human C5 [3]) [%] | Human CP IC50, hemolysis assay, NHS (human C5 [3]) [nM] | AGM AP % Max Inhibition, hemolysis assay, 5% serum (African green monkey C5 [4]) [%] | AGM CP % Max Inhibition, hemolysis assay, 5% serum (African green monkey C5 [4]) [%] | AGM Serum AP IC50, hemolysis assay, 5% serum (African green monkey C5 [4]) [nM] | AGM Serum CP IC50, hemolysis assay, 5% serum (African green monkey C5 [4]) [nM] | Cyno AP % Max Inhibition, hemolysis assay, 5% serum (Cynomolgus monkey C5) [%] | Cyno CP % Max Inhibition, hemolysis assay, 5% serum (Cynomolgus monkey C5) [%] | Cyno Serum AP IC50, hemolysis assay, 5% serum (Cynomolgus monkey C5) [nM] | Cyno Serum CP IC50, hemolysis assay, 5% serum (Cynomolgus monkey C5) [nM]
2.2 | 6.1 | 2.4 | 1.6 | 1.3 | 3.7 | 1.5 | H4H12177P2 (antibody, human IgG4, V domains shown, H4H: human IgG4 Fc with S108P hinge mutation) VH: EVQLVESGGGVVQRGESLRLSCSASDFIFKDYAMYWVRQIPGKGLEWISLISGDGDTTWYGDSVKGRFTISRDNNENSLFLQMNDLRTEDTAMYYCARDMGWNFFQLQYWGQGTLVTVSS VL: not shown | 71 | 17 | 97.5 | 2.34 | 8.8 | 80.6 | 101 | 180 | 98.1 | 94.9 | 8.8 | 17.1
1.2 | 4 | 1.3 | 0.9 | 1.4 | 0.34 | 0.7 | H4H11683N (antibody, human IgG4, V domains shown, tested with H4H prefix (human IgG4 Fc with S108P hinge mutation); variable regions follow the numerical identifier; also called H2M11683N) VH: QVQLVESGGGVVQPGRSLRLSCVASGFTFSSYGIHWVRQAPGKGLEWVAVIWDDGNNINYSDSVKGRFIISRDNSRKTVYLQMNSLRGEDTAVYYCARDAPIAPVPDYWGQGTLVTVSS VL: DIQMTQSPSTLSASVGDRVTITCRASQSISSWLAWYQQKPGKAPKLLIYKASSLDTGVPSRFSGSGSGTEFTLTISSLQPDDFATYYCQQYNTYSYTFGLGTKLEIK | 73.2 | 34 | 98.1 | 2.54 | 88.1 | 81.1 | 40.8 | 29.2 | 98.9 | 98.8 | 7.15 | 9
2 | 3.7 | 0.48 | 0.43 | ≤ 0.2 | ≤ 1.7 | 4.7 | H4H12170P (antibody, human IgG4, V domains shown, H4H: human IgG4 Fc with S108P hinge mutation) VH: QVQLVESGGGVVQPGRSLRLSCAASGFTFSGYGMHWVRQAPGKGLEWVALIWLDGSNDYYADSVKGRFTISRDNSKNTLYLQMNRLRAEDTAVYYCARDGPVAAIPDYWGQGTLVTVSS VL: DIQMTQSPSTLSASVGDRVTITCRASQSISRWLAWYQLKPGKAPKLLIYKASSLESGVPSRFSGSGSGTDFTLTISSLQPDDFATYYCQQYNTYSYTFGQGTKLEIK | 81.1 | 18 | 98.2 | 2.39 | 90.9 | 94.9 | 26.9 | 25.4 | 99.2 | 99 | 7 | 8.2
3.2 | 3.4 | 1.4 | 1 | ≤ 0.2 | 1.2 | 6.3 | H4H12159P (antibody, human IgG4, V domains shown, H4H: human IgG4 Fc with S108P hinge mutation) VH: QVQLVESGGGVVQPGRSLRLSCGASGFTFSTYGMHWVRQAPGKGLEWVAVIWDDGNNKYYADSVKGRFTISRDNSKNTLYLQMNSLRAEDTAVYYCARDSEVAPVGDYWGQGTLVTVSS VL: DIQMTQSPSTLSASVGDRVTIICRASQSINRWLAWYQQKPGKAPKLLIYKASSLESGVPSRFSGSGSGTEFTLTISSLQPDDFAAYYCQQYNDYSYTFGQGTKLEIK | 73.4 | 17.5 | 97.9 | 2.5 | 93.5 | 93.4 | 27 | 25.8 | 99.6 | 99.3 | 7.05 | 7.75
